Measured values as given in paper PMC9366794 (ACS Omega, 2022).
Ends that are not written are not given here.

Legend:
[1] = biological target: mouse melanocortin-5 receptor (mouse) (UniProt P41149)
[2] = biological target: mouse melanocortin-1 receptor (mouse) (UniProt Q01727)
MC4R KO mice = MC4R KO mice (intact MC3R); cited from earlier work
[3] = biological target: mouse melanocortin-3 receptor (mouse) (UniProt P33033)
male mice = conditions: icv, 5 μg, at 4, 6, and 24 h; cited from earlier work
[4] = test system: wildtype, MC4R KO, and MC3R KO mice; conditions: significant out to at least 7 days post-administration; cited from earlier work
[5] = biological target: mouse melanocortin-4 receptor (mouse) (UniProt P56450)
Sequence of UniProt P56450 (P56450 whole entry): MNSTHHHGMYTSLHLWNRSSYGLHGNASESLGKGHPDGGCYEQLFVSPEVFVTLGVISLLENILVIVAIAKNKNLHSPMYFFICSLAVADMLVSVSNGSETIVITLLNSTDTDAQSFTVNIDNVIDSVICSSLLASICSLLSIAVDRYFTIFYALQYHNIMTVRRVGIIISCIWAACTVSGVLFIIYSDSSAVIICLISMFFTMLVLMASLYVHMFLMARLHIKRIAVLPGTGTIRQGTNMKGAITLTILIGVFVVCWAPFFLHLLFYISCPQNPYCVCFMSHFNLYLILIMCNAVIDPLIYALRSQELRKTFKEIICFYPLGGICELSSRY

Sequence of UniProt Q01727 (Q01727 whole entry): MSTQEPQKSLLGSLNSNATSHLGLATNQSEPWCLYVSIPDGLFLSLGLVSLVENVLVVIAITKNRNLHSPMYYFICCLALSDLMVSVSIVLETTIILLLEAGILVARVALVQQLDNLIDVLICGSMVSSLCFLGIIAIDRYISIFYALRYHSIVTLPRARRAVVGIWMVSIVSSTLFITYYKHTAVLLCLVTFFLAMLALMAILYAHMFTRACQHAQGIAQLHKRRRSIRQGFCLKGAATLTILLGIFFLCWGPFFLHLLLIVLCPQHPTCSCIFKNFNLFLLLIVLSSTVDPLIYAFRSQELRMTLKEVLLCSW
Sequence of UniProt P41149 (P41149 whole entry): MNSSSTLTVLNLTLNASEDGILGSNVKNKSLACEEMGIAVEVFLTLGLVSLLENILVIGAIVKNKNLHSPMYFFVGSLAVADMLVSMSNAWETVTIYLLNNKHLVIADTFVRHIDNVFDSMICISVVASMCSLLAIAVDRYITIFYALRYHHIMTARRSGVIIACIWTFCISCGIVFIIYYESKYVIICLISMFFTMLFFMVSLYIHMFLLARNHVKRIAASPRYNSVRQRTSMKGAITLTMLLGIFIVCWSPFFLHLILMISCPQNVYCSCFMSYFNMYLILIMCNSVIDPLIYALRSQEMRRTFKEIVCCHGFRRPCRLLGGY
Sequence of UniProt P33033 (P33033 whole entry): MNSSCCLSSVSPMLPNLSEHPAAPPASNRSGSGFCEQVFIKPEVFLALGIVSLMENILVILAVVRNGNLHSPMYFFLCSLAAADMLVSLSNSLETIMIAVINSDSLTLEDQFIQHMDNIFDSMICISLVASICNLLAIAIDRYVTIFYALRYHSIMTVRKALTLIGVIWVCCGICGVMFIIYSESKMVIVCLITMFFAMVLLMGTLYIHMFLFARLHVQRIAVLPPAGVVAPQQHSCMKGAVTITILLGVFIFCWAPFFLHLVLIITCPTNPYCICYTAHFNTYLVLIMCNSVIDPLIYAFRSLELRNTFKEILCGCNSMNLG

Work on Ac-Arg-Arg-(pI)DPhe-wsf-NH2 (peptide) yielded an agonist EC50, cAMP AlphaScreen, HEK293 cells stably expressing mMC5R [1] of 650 nM and an agonist EC50, cAMP AlphaScreen, HEK293 cells stably expressing mMC1R [2] of 210 nM.

For Ac-His-DPhe-Arg-Trp-NH2, the “food intake in MC4R KO mice” value (MC4R KO mice) is listed as “decrease in food intake”.

Work on Ac-Arg-Arg-(pI)DPhe-Tic-NH2 (peptide) yielded an agonist EC50, cAMP AlphaScreen, HEK293 cells stably expressing mMC5R [1] of 7 nM, an agonist EC50, cAMP AlphaScreen, HEK293 cells stably expressing mMC3R [3] of 10 nM and an agonist EC50, cAMP AlphaScreen, HEK293 cells stably expressing mMC1R [2] of 0.18 nM.

In the case of CC(=O)N[C@@H](CCCNC(=N)N)C(=O)N[C@@H](CCCNC(=N)N)C(=O)N[C@H](Cc1ccc(I)cc1)C(=O)N1Cc2ccccc2C[C@H]1C(N)=O [compound 1, Ac-Arg-Arg-(pI)DPhe-Tic-NH2], the “food intake versus artificial cerebrospinal fluid vehicle” value (male mice) is given as “statistically significant increase in food intake”.

For MTII, the “food intake in MC4R KO mice” value (MC4R KO mice) is listed as “decrease in food intake”.

For “AGRP: naturally occurring MC3R/MC4R antagonist agouti-related protein (SSRRCVRLHESCLGQQVPCCDPCATCYCRFFNAFCYCRKLGTAMNPCSRT; ends and bridges not checked; cysteine pairing not given here; UniProt O00253 83-132, looked up)”, the “food intake compared to saline injection” value [4] is listed as “dose-dependent increase in food intake”.

NDP-MSH (peptide) showed an agonist EC50, cAMP AlphaScreen, HEK293 cells stably expressing mMC5R [1] of 0.26 nM, an agonist EC50, cAMP AlphaScreen, HEK293 cells stably expressing mMC3R [3] of 0.16 nM and an agonist EC50, cAMP AlphaScreen, HEK293 cells stably expressing mMC1R [2] of 0.013 nM. It also gave an agonist EC50, cAMP AlphaScreen, HEK293 cells stably expressing mMC4R [5] of 0.68 nM.

Compound Ac-Arg-Arg-(pI)DPhe-Wrf-NH2 (peptide) has an agonist EC50, cAMP AlphaScreen, HEK293 cells stably expressing mMC5R [1] of 240 nM, an agonist EC50, cAMP AlphaScreen, HEK293 cells stably expressing mMC3R [3] of 570 nM and an agonist EC50, cAMP AlphaScreen, HEK293 cells stably expressing mMC1R [2] of 380 nM.

With Ac-Arg-Arg-wsf-Tic-NH2 (peptide) the agonist EC50, cAMP AlphaScreen, HEK293 cells stably expressing mMC5R [1] was 350 nM.
